The labels stand for the following.
T1: FcγRIIa R (human, UniProt P12318 34-217)
T1 construct: extracellular domain; also called FcgRIIa R type; 2aR
T1 sequence (looked up): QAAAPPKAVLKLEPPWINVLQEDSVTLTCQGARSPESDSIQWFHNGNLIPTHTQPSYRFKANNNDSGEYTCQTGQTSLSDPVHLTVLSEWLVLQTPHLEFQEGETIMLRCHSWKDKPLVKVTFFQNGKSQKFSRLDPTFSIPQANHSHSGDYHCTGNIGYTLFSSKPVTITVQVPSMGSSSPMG

B1: GpH7-B3 variant K334_10E/GpL16-k0 (antibody, human IgG1, kappa)
heavy: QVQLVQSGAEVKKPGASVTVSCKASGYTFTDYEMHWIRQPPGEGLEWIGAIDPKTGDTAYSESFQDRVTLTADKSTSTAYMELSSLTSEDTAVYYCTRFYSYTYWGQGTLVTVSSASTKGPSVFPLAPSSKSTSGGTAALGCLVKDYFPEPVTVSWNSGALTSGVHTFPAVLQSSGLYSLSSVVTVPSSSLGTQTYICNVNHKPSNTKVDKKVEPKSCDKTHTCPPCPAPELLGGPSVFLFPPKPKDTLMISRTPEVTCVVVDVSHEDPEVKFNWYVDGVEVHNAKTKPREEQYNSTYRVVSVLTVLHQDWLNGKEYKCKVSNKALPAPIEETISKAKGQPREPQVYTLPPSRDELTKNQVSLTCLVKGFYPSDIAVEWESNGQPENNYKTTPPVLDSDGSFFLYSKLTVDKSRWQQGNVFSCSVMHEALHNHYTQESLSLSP
light: DIVMTQSPLSLPVTPGEPASISCQASESLVHSNRNTYLHWYLQKPGQSPQLLIYKVSNRFSGVPDRFSGSGSGTDFTLKISRVEAEDVGVYYCSQNTHVPPTFGQGTKVEIERTVAAPSVFIFPPSDEQLKSGTASVVCLLNNFYPREAKVQWKVDNALQSGNSQESVTEQDSKDSTYSLSSTLTLSKADYEKHKVYACEVTHQGLSSPVTKSFNRGEC
notes: also called Ho Ab K334_10E
B2: GpH7-B3 variant K334_12R/GpL16-k0 (antibody, human IgG1, kappa)
heavy: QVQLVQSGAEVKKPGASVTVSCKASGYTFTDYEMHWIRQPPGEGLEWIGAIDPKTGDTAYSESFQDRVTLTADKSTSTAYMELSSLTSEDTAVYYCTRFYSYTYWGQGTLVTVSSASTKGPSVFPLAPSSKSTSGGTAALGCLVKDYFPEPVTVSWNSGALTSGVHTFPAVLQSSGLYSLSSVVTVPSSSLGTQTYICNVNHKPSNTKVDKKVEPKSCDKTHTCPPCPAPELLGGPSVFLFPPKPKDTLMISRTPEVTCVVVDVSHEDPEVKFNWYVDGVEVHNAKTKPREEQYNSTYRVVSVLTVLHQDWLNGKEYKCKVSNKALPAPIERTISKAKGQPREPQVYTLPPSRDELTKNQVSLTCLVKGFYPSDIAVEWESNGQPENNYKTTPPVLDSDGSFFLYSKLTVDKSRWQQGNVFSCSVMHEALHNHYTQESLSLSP
light: DIVMTQSPLSLPVTPGEPASISCQASESLVHSNRNTYLHWYLQKPGQSPQLLIYKVSNRFSGVPDRFSGSGSGTDFTLKISRVEAEDVGVYYCSQNTHVPPTFGQGTKVEIERTVAAPSVFIFPPSDEQLKSGTASVVCLLNNFYPREAKVQWKVDNALQSGNSQESVTEQDSKDSTYSLSSTLTLSKADYEKHKVYACEVTHQGLSSPVTKSFNRGEC
notes: also called Ho Ab K334_12R
B3: GpH7-B3 variant L235_04F/GpL16-k0 (antibody, human IgG1, kappa)
heavy: not shown
light: DIVMTQSPLSLPVTPGEPASISCQASESLVHSNRNTYLHWYLQKPGQSPQLLIYKVSNRFSGVPDRFSGSGSGTDFTLKISRVEAEDVGVYYCSQNTHVPPTFGQGTKVEIERTVAAPSVFIFPPSDEQLKSGTASVVCLLNNFYPREAKVQWKVDNALQSGNSQESVTEQDSKDSTYSLSSTLTLSKADYEKHKVYACEVTHQGLSSPVTKSFNRGEC
notes: also called Ho Ab L235_04F
B4: GpH7-B3 variant L235_15Y/GpL16-k0 (antibody, human IgG1, kappa)
heavy: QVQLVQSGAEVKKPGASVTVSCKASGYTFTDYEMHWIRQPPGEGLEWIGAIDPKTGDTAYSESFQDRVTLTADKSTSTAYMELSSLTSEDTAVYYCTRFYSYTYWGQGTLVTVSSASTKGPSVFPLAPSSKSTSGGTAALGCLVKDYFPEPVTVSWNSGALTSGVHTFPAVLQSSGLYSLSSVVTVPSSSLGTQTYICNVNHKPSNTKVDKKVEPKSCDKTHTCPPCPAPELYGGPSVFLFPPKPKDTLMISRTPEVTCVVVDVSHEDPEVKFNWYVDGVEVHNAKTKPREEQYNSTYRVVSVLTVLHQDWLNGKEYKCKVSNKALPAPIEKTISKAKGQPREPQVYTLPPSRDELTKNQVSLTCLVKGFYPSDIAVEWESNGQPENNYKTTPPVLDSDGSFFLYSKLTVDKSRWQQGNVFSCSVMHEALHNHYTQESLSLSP
light: DIVMTQSPLSLPVTPGEPASISCQASESLVHSNRNTYLHWYLQKPGQSPQLLIYKVSNRFSGVPDRFSGSGSGTDFTLKISRVEAEDVGVYYCSQNTHVPPTFGQGTKVEIERTVAAPSVFIFPPSDEQLKSGTASVVCLLNNFYPREAKVQWKVDNALQSGNSQESVTEQDSKDSTYSLSSTLTLSKADYEKHKVYACEVTHQGLSSPVTKSFNRGEC
notes: also called Ho Ab L235_15Y
B5: GpH7-B3 variant L234_04F/GpL16-k0 (antibody, human IgG1, kappa)
heavy: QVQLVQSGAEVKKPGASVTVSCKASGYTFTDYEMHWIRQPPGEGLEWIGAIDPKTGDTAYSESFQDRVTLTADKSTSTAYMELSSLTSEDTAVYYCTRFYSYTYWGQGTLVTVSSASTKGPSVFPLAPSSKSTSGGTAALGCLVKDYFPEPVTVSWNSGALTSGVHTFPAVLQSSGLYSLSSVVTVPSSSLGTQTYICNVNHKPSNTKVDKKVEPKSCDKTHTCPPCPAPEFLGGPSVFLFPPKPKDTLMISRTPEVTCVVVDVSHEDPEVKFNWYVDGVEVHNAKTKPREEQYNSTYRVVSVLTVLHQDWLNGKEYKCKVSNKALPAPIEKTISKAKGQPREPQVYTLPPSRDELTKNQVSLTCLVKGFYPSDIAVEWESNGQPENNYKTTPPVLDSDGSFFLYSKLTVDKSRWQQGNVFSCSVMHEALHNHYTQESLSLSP
light: DIVMTQSPLSLPVTPGEPASISCQASESLVHSNRNTYLHWYLQKPGQSPQLLIYKVSNRFSGVPDRFSGSGSGTDFTLKISRVEAEDVGVYYCSQNTHVPPTFGQGTKVEIERTVAAPSVFIFPPSDEQLKSGTASVVCLLNNFYPREAKVQWKVDNALQSGNSQESVTEQDSKDSTYSLSSTLTLSKADYEKHKVYACEVTHQGLSSPVTKSFNRGEC
notes: also called Ho Ab L234_04F
B6: GpH7-B3 variant L234_20W/GpL16-k0 (antibody, human IgG1, kappa)
heavy: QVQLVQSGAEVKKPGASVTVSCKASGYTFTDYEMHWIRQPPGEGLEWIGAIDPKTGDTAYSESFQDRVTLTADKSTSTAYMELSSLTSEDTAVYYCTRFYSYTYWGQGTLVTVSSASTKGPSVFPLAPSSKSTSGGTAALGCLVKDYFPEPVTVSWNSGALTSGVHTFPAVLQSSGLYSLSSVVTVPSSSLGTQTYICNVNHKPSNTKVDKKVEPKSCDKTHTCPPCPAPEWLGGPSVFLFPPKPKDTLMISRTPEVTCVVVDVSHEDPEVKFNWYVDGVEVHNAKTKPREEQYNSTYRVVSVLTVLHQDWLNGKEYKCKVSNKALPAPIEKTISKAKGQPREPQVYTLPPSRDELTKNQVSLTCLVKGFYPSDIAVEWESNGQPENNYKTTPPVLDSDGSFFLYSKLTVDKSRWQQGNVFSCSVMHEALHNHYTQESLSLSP
light: DIVMTQSPLSLPVTPGEPASISCQASESLVHSNRNTYLHWYLQKPGQSPQLLIYKVSNRFSGVPDRFSGSGSGTDFTLKISRVEAEDVGVYYCSQNTHVPPTFGQGTKVEIERTVAAPSVFIFPPSDEQLKSGTASVVCLLNNFYPREAKVQWKVDNALQSGNSQESVTEQDSKDSTYSLSSTLTLSKADYEKHKVYACEVTHQGLSSPVTKSFNRGEC
notes: also called Ho Ab L234_20W
B7: GpH7-B3 variant K334_20W/GpL16-k0 (antibody, human IgG1, kappa)
heavy: not shown
light: DIVMTQSPLSLPVTPGEPASISCQASESLVHSNRNTYLHWYLQKPGQSPQLLIYKVSNRFSGVPDRFSGSGSGTDFTLKISRVEAEDVGVYYCSQNTHVPPTFGQGTKVEIERTVAAPSVFIFPPSDEQLKSGTASVVCLLNNFYPREAKVQWKVDNALQSGNSQESVTEQDSKDSTYSLSSTLTLSKADYEKHKVYACEVTHQGLSSPVTKSFNRGEC
notes: also called Ho Ab K334_20W
B8: GpH7-B3 variant K334_19Q/GpL16-k0 (antibody, human IgG1, kappa)
heavy: not shown
light: DIVMTQSPLSLPVTPGEPASISCQASESLVHSNRNTYLHWYLQKPGQSPQLLIYKVSNRFSGVPDRFSGSGSGTDFTLKISRVEAEDVGVYYCSQNTHVPPTFGQGTKVEIERTVAAPSVFIFPPSDEQLKSGTASVVCLLNNFYPREAKVQWKVDNALQSGNSQESVTEQDSKDSTYSLSSTLTLSKADYEKHKVYACEVTHQGLSSPVTKSFNRGEC
notes: also called Ho Ab K334_19Q
B9: GpH7-B3 variant L328_09D/GpL16-k0 (antibody, human IgG1, kappa)
heavy: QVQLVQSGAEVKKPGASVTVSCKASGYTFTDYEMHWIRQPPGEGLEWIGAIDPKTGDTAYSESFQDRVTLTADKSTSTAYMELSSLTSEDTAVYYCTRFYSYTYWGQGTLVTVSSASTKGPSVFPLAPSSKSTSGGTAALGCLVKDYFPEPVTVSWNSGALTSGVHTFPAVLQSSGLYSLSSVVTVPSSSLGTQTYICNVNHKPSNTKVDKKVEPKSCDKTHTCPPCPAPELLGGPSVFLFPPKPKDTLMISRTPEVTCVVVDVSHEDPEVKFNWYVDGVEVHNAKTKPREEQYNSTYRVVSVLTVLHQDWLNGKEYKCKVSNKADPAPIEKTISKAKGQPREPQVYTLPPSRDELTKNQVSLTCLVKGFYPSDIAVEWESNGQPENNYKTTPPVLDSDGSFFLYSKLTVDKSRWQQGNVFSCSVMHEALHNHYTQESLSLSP
light: DIVMTQSPLSLPVTPGEPASISCQASESLVHSNRNTYLHWYLQKPGQSPQLLIYKVSNRFSGVPDRFSGSGSGTDFTLKISRVEAEDVGVYYCSQNTHVPPTFGQGTKVEIERTVAAPSVFIFPPSDEQLKSGTASVVCLLNNFYPREAKVQWKVDNALQSGNSQESVTEQDSKDSTYSLSSTLTLSKADYEKHKVYACEVTHQGLSSPVTKSFNRGEC
notes: also called Ho Ab L328_09D
B10: GpH7-B3 variant L235_09D/GpL16-k0 (antibody, human IgG1, kappa)
heavy: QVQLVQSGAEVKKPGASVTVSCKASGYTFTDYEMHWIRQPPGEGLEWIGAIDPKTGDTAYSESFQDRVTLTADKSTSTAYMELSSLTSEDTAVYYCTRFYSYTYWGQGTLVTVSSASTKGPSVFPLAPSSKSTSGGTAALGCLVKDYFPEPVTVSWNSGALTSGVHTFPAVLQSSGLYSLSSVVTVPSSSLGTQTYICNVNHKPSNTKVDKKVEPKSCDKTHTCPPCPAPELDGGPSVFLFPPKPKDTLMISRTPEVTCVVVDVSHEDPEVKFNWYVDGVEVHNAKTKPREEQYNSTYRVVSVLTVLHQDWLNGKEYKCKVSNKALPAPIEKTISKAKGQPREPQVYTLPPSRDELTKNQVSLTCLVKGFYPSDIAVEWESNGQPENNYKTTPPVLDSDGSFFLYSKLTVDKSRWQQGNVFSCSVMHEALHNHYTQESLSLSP
light: DIVMTQSPLSLPVTPGEPASISCQASESLVHSNRNTYLHWYLQKPGQSPQLLIYKVSNRFSGVPDRFSGSGSGTDFTLKISRVEAEDVGVYYCSQNTHVPPTFGQGTKVEIERTVAAPSVFIFPPSDEQLKSGTASVVCLLNNFYPREAKVQWKVDNALQSGNSQESVTEQDSKDSTYSLSSTLTLSKADYEKHKVYACEVTHQGLSSPVTKSFNRGEC
notes: also called Ho Ab L235_09D
B11: GpH7-B3 variant L234_10E/GpL16-k0 (antibody, human IgG1, kappa)
heavy: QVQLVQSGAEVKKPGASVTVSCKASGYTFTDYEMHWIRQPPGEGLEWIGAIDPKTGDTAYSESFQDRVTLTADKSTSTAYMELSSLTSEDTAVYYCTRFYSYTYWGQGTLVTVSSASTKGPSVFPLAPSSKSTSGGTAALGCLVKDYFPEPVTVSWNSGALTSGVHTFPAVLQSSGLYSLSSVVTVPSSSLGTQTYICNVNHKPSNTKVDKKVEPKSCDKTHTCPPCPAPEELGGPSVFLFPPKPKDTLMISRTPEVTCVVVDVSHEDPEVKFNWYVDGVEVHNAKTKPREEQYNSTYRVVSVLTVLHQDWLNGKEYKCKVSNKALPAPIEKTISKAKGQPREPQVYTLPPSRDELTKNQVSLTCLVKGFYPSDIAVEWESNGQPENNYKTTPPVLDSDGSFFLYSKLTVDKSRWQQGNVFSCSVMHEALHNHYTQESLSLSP
light: DIVMTQSPLSLPVTPGEPASISCQASESLVHSNRNTYLHWYLQKPGQSPQLLIYKVSNRFSGVPDRFSGSGSGTDFTLKISRVEAEDVGVYYCSQNTHVPPTFGQGTKVEIERTVAAPSVFIFPPSDEQLKSGTASVVCLLNNFYPREAKVQWKVDNALQSGNSQESVTEQDSKDSTYSLSSTLTLSKADYEKHKVYACEVTHQGLSSPVTKSFNRGEC
notes: also called Ho Ab L234_10E
B12: GpH7-B3 variant K334_13S/GpL16-k0 (antibody, human IgG1, kappa)
heavy: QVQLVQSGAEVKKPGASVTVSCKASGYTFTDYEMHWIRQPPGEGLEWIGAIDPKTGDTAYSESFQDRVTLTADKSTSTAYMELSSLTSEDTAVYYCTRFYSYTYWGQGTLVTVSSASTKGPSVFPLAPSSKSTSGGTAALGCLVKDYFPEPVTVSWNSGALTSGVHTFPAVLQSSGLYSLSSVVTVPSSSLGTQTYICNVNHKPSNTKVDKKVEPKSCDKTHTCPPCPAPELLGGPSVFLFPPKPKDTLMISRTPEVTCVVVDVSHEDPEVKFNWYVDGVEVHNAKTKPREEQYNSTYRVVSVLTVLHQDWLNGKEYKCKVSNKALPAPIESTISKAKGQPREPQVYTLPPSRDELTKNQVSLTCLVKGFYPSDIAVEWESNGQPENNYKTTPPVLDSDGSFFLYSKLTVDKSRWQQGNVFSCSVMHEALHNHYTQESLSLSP
light: DIVMTQSPLSLPVTPGEPASISCQASESLVHSNRNTYLHWYLQKPGQSPQLLIYKVSNRFSGVPDRFSGSGSGTDFTLKISRVEAEDVGVYYCSQNTHVPPTFGQGTKVEIERTVAAPSVFIFPPSDEQLKSGTASVVCLLNNFYPREAKVQWKVDNALQSGNSQESVTEQDSKDSTYSLSSTLTLSKADYEKHKVYACEVTHQGLSSPVTKSFNRGEC
notes: also called Ho Ab K334_13S
B13: GpH7-B3 variant L328_10E/GpL16-k0 (antibody, human IgG1, kappa)
heavy: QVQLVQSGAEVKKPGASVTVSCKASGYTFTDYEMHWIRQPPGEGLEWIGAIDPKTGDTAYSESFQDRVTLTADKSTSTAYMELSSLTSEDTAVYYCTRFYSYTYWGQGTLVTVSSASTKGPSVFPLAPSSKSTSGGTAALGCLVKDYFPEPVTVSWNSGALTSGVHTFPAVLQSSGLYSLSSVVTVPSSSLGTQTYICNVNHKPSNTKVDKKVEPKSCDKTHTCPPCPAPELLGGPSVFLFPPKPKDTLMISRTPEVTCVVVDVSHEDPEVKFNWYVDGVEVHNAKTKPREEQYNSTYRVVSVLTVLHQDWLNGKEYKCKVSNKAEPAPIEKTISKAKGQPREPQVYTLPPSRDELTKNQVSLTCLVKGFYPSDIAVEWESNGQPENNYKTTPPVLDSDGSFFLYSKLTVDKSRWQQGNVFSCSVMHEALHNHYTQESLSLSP
light: DIVMTQSPLSLPVTPGEPASISCQASESLVHSNRNTYLHWYLQKPGQSPQLLIYKVSNRFSGVPDRFSGSGSGTDFTLKISRVEAEDVGVYYCSQNTHVPPTFGQGTKVEIERTVAAPSVFIFPPSDEQLKSGTASVVCLLNNFYPREAKVQWKVDNALQSGNSQESVTEQDSKDSTYSLSSTLTLSKADYEKHKVYACEVTHQGLSSPVTKSFNRGEC
notes: also called Ho Ab L328_10E
B14: GpH7-B3 variant L235_20W/GpL16-k0 (antibody, human IgG1, kappa)
heavy: not shown
light: DIVMTQSPLSLPVTPGEPASISCQASESLVHSNRNTYLHWYLQKPGQSPQLLIYKVSNRFSGVPDRFSGSGSGTDFTLKISRVEAEDVGVYYCSQNTHVPPTFGQGTKVEIERTVAAPSVFIFPPSDEQLKSGTASVVCLLNNFYPREAKVQWKVDNALQSGNSQESVTEQDSKDSTYSLSSTLTLSKADYEKHKVYACEVTHQGLSSPVTKSFNRGEC
notes: also called Ho Ab L235_20W
B15: GpH7-B3 variant L328_02A/GpL16-k0 (antibody, human IgG1, kappa)
heavy: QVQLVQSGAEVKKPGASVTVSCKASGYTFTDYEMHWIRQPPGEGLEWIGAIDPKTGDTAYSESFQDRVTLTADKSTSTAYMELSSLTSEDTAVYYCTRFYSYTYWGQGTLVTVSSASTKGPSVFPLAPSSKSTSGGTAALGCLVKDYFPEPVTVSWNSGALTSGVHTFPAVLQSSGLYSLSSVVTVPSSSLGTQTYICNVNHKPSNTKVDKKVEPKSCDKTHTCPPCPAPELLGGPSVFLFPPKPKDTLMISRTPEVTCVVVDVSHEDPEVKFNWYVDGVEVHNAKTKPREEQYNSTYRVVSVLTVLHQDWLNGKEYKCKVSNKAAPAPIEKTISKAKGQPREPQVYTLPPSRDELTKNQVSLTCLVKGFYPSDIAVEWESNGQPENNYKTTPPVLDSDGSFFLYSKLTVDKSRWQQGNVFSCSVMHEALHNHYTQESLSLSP
light: DIVMTQSPLSLPVTPGEPASISCQASESLVHSNRNTYLHWYLQKPGQSPQLLIYKVSNRFSGVPDRFSGSGSGTDFTLKISRVEAEDVGVYYCSQNTHVPPTFGQGTKVEIERTVAAPSVFIFPPSDEQLKSGTASVVCLLNNFYPREAKVQWKVDNALQSGNSQESVTEQDSKDSTYSLSSTLTLSKADYEKHKVYACEVTHQGLSSPVTKSFNRGEC
notes: also called Ho Ab L328_02A
B16: GpH7-B3 variant L234_09D/GpL16-k0 (antibody, human IgG1, kappa)
heavy: not shown
light: DIVMTQSPLSLPVTPGEPASISCQASESLVHSNRNTYLHWYLQKPGQSPQLLIYKVSNRFSGVPDRFSGSGSGTDFTLKISRVEAEDVGVYYCSQNTHVPPTFGQGTKVEIERTVAAPSVFIFPPSDEQLKSGTASVVCLLNNFYPREAKVQWKVDNALQSGNSQESVTEQDSKDSTYSLSSTLTLSKADYEKHKVYACEVTHQGLSSPVTKSFNRGEC
notes: also called Ho Ab L234_09D

For this test, the target named is T1, FcγRIIa R. The test is described as follows: SPR Biacore; vs GpH7-B3/GpL16-k0 =100. As for the experimental part:
Analysis of interaction between objective antibody and the FcγR was carried out using Biacore T100 (GE Healthcare). HBS-EP+ (GE Healthcare) was used as the running buffer, and the measurement temperature was set to 25° C. Chips produced by immobilizing the antigen peptide by the amine coupling method to a Series S Sencor Chip CM5 (GE Healthcare), or alternatively, chips produced by allowing preliminarily biotinylated antigen peptides to interact with and immobilize onto a Series S Sensor Chip SA (certified) (GE Healthcare) were used. Antibodies of interest were captured onto an antigen peptide-immobilized chip, and allowed to interact to each FcγR diluted with running buffer. To regenerate and repeatedly use the chip, the antibodies captured on the chip were washed off by reacting 10 mM glycine-HCl, pH 1.5.
The FcγR-binding activity of each antibody was assessed primarily using as an indicator the FcγR-binding activity and dissociation constant for FcγR.
Take B1: the Ho/Con_2aR is 106 % of control.
As for B2, the figure is 110 % of control; as for B3, 98.9 % of control.
To B4 belongs 111 % of control; to B5, 43.3 % of control.
As for B6, the figure is 53.8 % of control; as for B7, 96.4 % of control.
Take B8: the Ho/Con_2aR was 108 % of control.
As to B9, the Ho/Con_2aR was 68.8 % of control.
As for B10, the figure is 73 % of control; as for B11, 39.9 % of control; as for B12, 106 % of control.
To B13 belongs 48.1 % of control; to B14, 114 % of control; to B15, 97 % of control.
To B16 belongs 42.8 % of control.

The values above are taken from patent publication US20180155451A1 (published 2018).
